Reference: the nanobody polyreactivity screen of Harvey et al. (2022)

experiment: yeast display, Sf9 membrane polyspecificity reagent, FACS + sequencing; frameworks hold sequencing errors
How it was run: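 Galactose induction of a Saccharomyces cerevisiae BJ5465 synthetic nanobody display library ran 36–48 hours. The cells were then stained for 1 hour at 4 °C with 10% biotinylated, detergent-solubilized Sf9 membrane reagent, pulled down on streptavidin microbeads and FACS-sorted into low and high (top ~1%) gates on expression and reagent-binding fluorescence. Labels for polyreactivity follow the gate of origin.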

| Sequence | polyreactivity (PSR sort gate) |
| --- | --- |
| QVQLVESGGGVVHAGGSLRLSCAASGLIFRYYAVGGYRPAPGKERELVARISTRGGSTYYADSVKGRFTISRDNAKNTVYLPMNSLKPEDTAVYYCAAVNGLYYHKYGYYWGQGTQVTVSS | high polyreactivity |
| QFQLVESGRGLVQAVGSHRLRCAASGSILLKYAMGWYRQATGKEMELVAAITYRGASTHYADSVKGRFTISRDNAKNTVYLQMNSLKPEDTAVYYCAARGWVYYASEMDYWGQGTQVTVSS | low polyreactivity |
| QVQLVESGGGLVQAGGSLRLSCAASGSIISYYAMGWYRQAPGKERELVATITSGGITYYADSVKGRFTISRDNAKNTVYLQMNSLKPEDTAVYYCNARYPHGYSSYYRFGYWGQGTQVTVSS | high polyreactivity |
| QVQLVESGGGLVQAGGSLRLSCAASGIIFFYNAMGWYRQAPGKERELVAAISSDGSTYYADSVKGRFTISRDNAKNTVYLQMNSLKPEDTAVYYCNAGSLRYGPYNHWGQGTQVTVSS | low polyreactivity |
| QVQLIESGGGLVQAGGSLRLSCAASGSIFQYTMGWYRQAPGKERELVAAITRSGSSTYYADSVKGRFTISRDNAKNTVYLQMNSLKPEDTAVYYCAHTIRRVLGYGSWGQGTQVTVSS | high polyreactivity |
| QVQLVQSGGGLVQAGGSLRLSCAASGRTFRIYAMGWYRQAPWKEREFVAGITRSDGSTYYADSVKGRFTISRDNAKNTVYLQMISLKPEDTAVYYCNVEPYSHYRSTEDYWGQGTQVTVSS | high polyreactivity |
| QVQLVESGGGLVQAGGSLRLSCAASGITFSEYAMGLYRQAPGKERELVAAITSGGNTYYADSVKGRFTISRDNAKNTVYLQMNSLKPEDTAVYYCAATFSSAFAYYYWGQGTQVTVSS | low polyreactivity |
| QVQLVESGGGLVQAGGSLRISCAASGGIFWTYAMGWYRQEPGKERELVAAISYSDGITYYADSVKGRFTISRDNAKNTVYFQMNSLKPEDTAVYYCAADPELAVPMYYWGQGTQVTVSS | low polyreactivity |
| QVHLVESGGGLVQAGGSLRLSCAASGTTFGDYAMGWYRQAPGKERELVAAISLSAGSTYYADSVKGRFTISRDNAKNTVYLQMNSLKPEDTAVYYCAAEYQYHWAYIYYYWGQGTQVTLSS | high polyreactivity |
| QVQLVESGGGLVQAGGSLRLSCAASGFTFGSYAMGWYRQAPGKERELVAAISRGGTTYYADSVKGRFTVSRDNAKNTVYLQMNSLKPEDTAVYYCATALIVRGPSRYEYWGQGTQVTVSS | high polyreactivity |
| QVQLVESGGGLVQAGGSLRLSCAASGTTFCSYAMGRYRQAPGKEREFVAAISSSDDSTYYADSVKGRFTISRDYAKNTVYLQMNSLKPEDTAVYYCAAAQRVNHVWYDYWGQGTQVTVSS | low polyreactivity |
| QVQLVESGGGLVQAGGSLRLSCAASGNTFYDNAMGWYRQTPGKERELVAAISYNDGDTYYADSVKGRFTISRDNAKNTVYLQMNSLKPEDTAVYFCAAVVRRVRGARGQEGDNYWGQGTQVTVSS | high polyreactivity |
| QFQLVESVGGLVQAGGSLRLSCAASGRTFGNYAMGWYRQAPGKERELVAAISRSGGSTSYADSVKGRFTISRDNAKNTVYLQMNSLKPVDTAVYYCNAYFRGPRDYQYDYWGQGTQVTVSS | high polyreactivity |
| QVQLVESGGGLVQAGGSLRLSCAASGYTFTAYAMGWYRQAPGKERELVAAISKGGGSTYYADSVKGRFTISRDNAKNTVYLQMNSLKPEDTAVYYCAADTYQGVKYYYWGQGTQVTVSS | high polyreactivity |
| QVQLVESGGCLVQAGGSLRLSCAASGSTFDINAMGWYRQAPGKESELVASITFSGGSTYYADSVKGRFTISRDNAKNTVYLQMNSLKPEDTAVYYCAADSSGEYPGGYWGQGTQVTVTS | low polyreactivity |
| QVQLVQSGGGIVQAGGSLRISCAASGFIFSSYDMGWYRQAPGKESELVAAISWTGGSTYYADSVKARFTISRDNAKNTVYLQMTSLKPEETAVYYCNAYPYFLVRIMDSWGQGTEVTVSS | high polyreactivity |
| QVQLVESGGGLVHAGGSLRLSCAASRFIFYYYALGWYRQAPGKERELVAVITSGGSTNYADSVKGRFTISRDNAKNTVYLQMNSLKPEDTAVYYCAARSRRRDDSWGQGTQVTVSS | high polyreactivity |
| QVQLVESGGGLVQAGGSLRLSCAASGFTFGNNAMGWYRKAPGKERELVAAISKRGSSTYYADSVKGRFTISRDNAKNTVYLQMNSLKPEDTAVYYCAAEGRRTRYYYWGQGTQVTVSS | high polyreactivity |
| QVHLVESGVGLVQAGGSLRLSCAAYGSTCGWYAMGWYRQAPGKERELVASITWDGGRTYYADSVKGRFTISRDNAKNTVYLQMISQKPEDTAVYYCAARGVSSPLNYWGQGNQVTVSS | low polyreactivity |
| QVQLVESGGGLVQAGGSLRLSCAASGRIFGVYAMGWYRQAPGKERELVASITWRGGSTYYADSVKGRFTISRDNAKNTVYLQMNSLKPEDTAVYYCAAAYWYAYEYWGQGTQVTVSS | high polyreactivity |
| QVQLVESGGGLVQAGGSLRLSCAASGFTFTGNAMGWYRQAPGKERELVAAITSGTSTYYADSVKGRFTISRDNAKNTVYLQMNSLKPEDTAVYYCAKEYPLDGRGSDYCGQGTQVTVSS | low polyreactivity |

| Sequence | polyreactivity (PSR sort gate) |
| --- | --- |
| QVQLVESGGGLVQAGGSLRLSCAASGSIYDRYVMGWYRQAPGKERELVAAISKSGGNTYYADSVKGRFTISRDNAKNTVYLQMNSLKPEDTAVYYCNARSGRYYLGYGYWGQGTQVTVSS | high polyreactivity |
| QVQLVESGGGLVQAGGSLRLSCAASGSIFFSYAMGWYRQAPGKERELVAAIDYSGGGTYYADSVKGRFTISRDNAKNTVYLQMNSLKPEDTAVYYCNSDTEVWAVTFISYRALNYWGQGTQVTVSS | low polyreactivity |
| QVQLVESGGGLVQAGGSLRISCASSGRIFAFYVMGWYRQAPGKERELVAAISIRGTRTYYADSVKGRFTISRDNAKNTVYLQMNSLKPVDTAVYYCNAVTFPHYYDYWGQGPQVTVSS | high polyreactivity |
| QVQLVESAAGLVQAGGSLRLSCAASGITFYRNAMGWYRQARGNEMELGAAITWNGGRTYYADSVKGRFTISRDNAKNTVYLQMNSLKPEDTALYYCAADSGTRNLASYRYYYWGQGTQVTVSS | high polyreactivity |
| QVQLVESRGGLVQAGGSLRLSCAASGNTFRIYTMGWYRQAPGKDRELVATITRRGGYTYYADSVKGRFTISRDNAKNTVYLQMNSLKPEDTAVYYCNALPRPSYTFDYWGQGTQVTVSS | high polyreactivity |
| QVQLVESGVGLVQAGGSLRLSCAASGSIFGLYAMGCYRQAPGKERELVAAISTSDTSTYYADSVKGRFTISRDNAKNTVYLQMTSLKQEDTAVYYCAADTYDNFDYSGQGTQVTVSS | low polyreactivity |
| QVQLVESGGGLVQAGGSLRLSCAASGLTSVSNAMGWYRPAPGKERELVAAISSRGGITYYADSVKGRFTISRDNAKNTVYLQMNSLKPEDTAVYYCAKKTVQRGYYYWGQGTQVTVSS | high polyreactivity |
| QVQLVESGGGLVQAGGSLRLSCAASGFTFRLYVMGWYREAPGTERELVAALSSRGGSTYYADSVKGRFTISRDNAKYTVYLQMNRLKPDDTAFYYCAADRPRCRETVDYWGHGTQVTVSS | high polyreactivity |
| QVQLVESGGGLVQAGGSLRLSCAASGSTFGGYAMGWYRQAPGKERELVAAITSRGGSTYYADSVKGRFTISRDNAKNTVYLQMNSLKPEDTAVYYCATGLPKRDRRARIRYEYWGQGTQVTVSS | low polyreactivity |
| QVQLLESGGGLVQAGGSLRLSCAASASTFWFYAMGWYIQAPGKERELVAAISSTGSTNYADSVKGRFTISRDNAKNTVYLQMNSLKPEDTAVYYCATQEGPHKLDPRGYYWGQGTQVTVSS | low polyreactivity |
| QVQLVESGGGLVQAGGSLLLSCAASGFTFKYYAMGWYRQEPGKERELVAAINRSVGSTYYADSVKGRFTISRDNAKNTVYLQMNSLKPEDTAVYYCNARVRVPVTLHDYWGQGTQVTVSS | high polyreactivity |
| QVQLVESGGGLVQAGGSLRLSCAASRYYAMGWYRQAPGKERELVPAITWSGGTTYYADSVKGRFTISRYNGKNTVYLQMNSLTPEDTAVYYCNADFVRFTRHKKYYYWGQGTQVTVSS | low polyreactivity |
| QVQLQESGGGLVQEGGSLRLSCAASGNISPPADMGWYRQAPGKERELVASIGTGGTTNYADSVKGRFTISRDNAKNTVYLQMNSLKPDDTAVYYCAAVRYEYNPYDYWGQGTQVTVRS | low polyreactivity |
| QVQLVESGGGLVQAGGSLRLSCAASGRIFAWNDMGWYRQAPGKERELVAAITSGGSTYYADSVKGRFTISRDNAKNTVYLQMNSLKPEDTAVYYCAAEVYVPDYFQHKFDVEYEYWGQGTQVTVSS | low polyreactivity |
| QVQLVESGGGLVQAGGSLRLSCAASGSIFYRYAMGWYRQAPGKERELVAAISSGGSTYYADSVKGRFTISRDNAKNTVYLQMNSLKPEDTAVYYCAAKHYYYSPYVRYDPPPGYYWGQGTQVTVSS | high polyreactivity |
| QVQLVESGGGLVQAGGSLRLSCAASGSIFNANAMGWYRPAPGKERELVAGIRSGSSTNYADSVKGRFTISRDNAKNTVYLQMNSLKPEDTAVYYCATEGYWVYGFDDEYWGQGTQVTVSS | low polyreactivity |
| QVQLVESGGGLVHAGGCLRISCAASGRIFWYNEMGWYRQATGKERELVADITPRGTRTHYADSVKGRFTISRDNAKNTVYLQMNSLKPEDPGVYYCAKGWYTVDWDAPVFSERGEYWGQGSQVTVSS | low polyreactivity |
| QVQLVESGGGLVQAGGSLRLSCAASGSIFYGNAMGWYRQAPGKERELVAGISWSGGSTYYADSVKGRFTISRDNAKNTVYFQMNSLKPEDTAVYYCATVADEPRAYSGYEESDYWGQGTQVTVSS | low polyreactivity |
| QVQLVESGGGLVQAGGSLRISCAASGLTFYYNAMGWYRQAPGKDRELVATITWRGGRTYYADSVKGRFTISRDNAKNTVYLQMNCLKPEDTAVYYCAAGYFSQRLYLWFGYWGQGTQVTVSS | high polyreactivity |
| QVQLVESGGGLVQAGGSLRLSCAASGSTFQINAMGWYRQAHGKERALVAAIDGGGDTYYADSVKGRFTISRDNAKKTDYLQMNSLKPEDTAVYYCAAERRIYYQDFNYCGQGTQVTVSS | low polyreactivity |
